Source: article doi:10.1101/2023.07.22.550172 (bioRxiv, 2023)

Target: the molecule itself
Experiment: cryo-EM structure

B1: major pilin PilA of Myxococcus xanthus (MXAN_5783), mature, as the subunit of the type IV pilus (natural protein, UniProt Q59589 13-220, looked up)
chain: FTLIELMIVVAIIGILAAIAIPNFIKFQARSKQSEAKTNLKALYTAQKSFFSEKDRYSDFANEIGFAPERGNRYGYRVSAAAGDCEVRNAADLPVPAAGVPCISNDSFRFGANSAIDDPTPVVARFVPQGAAGWNTTLGVQPTIADCPNCNFFAGARGNADNEATFDDWVIAGFEGSGQVGPCSEAGNVASGTPYNTRNDVACDGAAQ
  binding result: binds
